In article PMC12892892 one finds Kd data, which are given here for one substance.

This assay addresses recombinant natriuretic peptide receptor B (NPR-B) (UniProt P20594). As to the kind of experiment: SPR; recombinant NPR-B immobilised on a CM5 chip by amine coupling (10 ug/mL, 10 mM sodium acetate pH 4.5); CBD-CNP injected at 1.25, 2.5, 5.0, 10 and 20 uM in 50 mM Tris HCl pH 7.5, 200 mM NaCl, 1 mM CaCl2; Biacore X; single-cycle kinetics, 1:1 Langmuir model. In general terms: SPR reads the build-up and loss of mass on a sensor chip optically.
Chain of UniProt P20594 (P20594 23-458): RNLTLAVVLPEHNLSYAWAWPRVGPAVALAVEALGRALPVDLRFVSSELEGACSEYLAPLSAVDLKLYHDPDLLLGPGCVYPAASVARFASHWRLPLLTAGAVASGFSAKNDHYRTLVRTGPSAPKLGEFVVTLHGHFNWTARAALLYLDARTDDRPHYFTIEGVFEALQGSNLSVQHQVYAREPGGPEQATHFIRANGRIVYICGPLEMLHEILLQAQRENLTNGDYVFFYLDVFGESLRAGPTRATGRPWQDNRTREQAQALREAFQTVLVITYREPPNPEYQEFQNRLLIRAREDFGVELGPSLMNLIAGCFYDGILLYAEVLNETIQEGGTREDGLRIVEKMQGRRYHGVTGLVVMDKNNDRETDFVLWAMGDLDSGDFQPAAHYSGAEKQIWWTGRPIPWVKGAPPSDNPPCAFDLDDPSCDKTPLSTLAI

Usually Kd stands for the equilibrium constant for the complex coming apart. Consider “CBD-CNP (collagen-binding domain fused to C-type natriuretic peptide CNP-37) (from UniProt Q9X721 1003-1118)”, for which the Kd turned out to be 495 µM.
